Columns and labels:
F-actin [1] = test: co-sedimentation with F-actin in the presence of TM, densitometry of pellet (FIG. 3C)
F-actin [2] = test system: F-actin
[3] = test system: citrullinated F-actin (treated with PAD2)

Question: “cardiac troponin I (TnI), non-citrullinated” was tested. Which percent of TnI present in the pellet (F-actin [1]) did it give?
Answer: Its percent of TnI present in the pellet is over 95%.

Question: With “citrullinated cardiac troponin I (TnI treated with PAD2)” as the substance, how does the percent of TnI present in the pellet (F-actin [1]) read?
Answer: Its percent of TnI present in the pellet is over 95%.

Question: How did the “actomyosin HMM-ATPase activity” value (F-actin [2]) turn out when “citrullinated heavy meromyosin (HMM treated with PAD2)” was run?
Answer: The value was 0.22±0.002 nmol Pi.

Question: And the “decrease in actomyosin HMM-ATPase activity against non-citrullinated HMM” value (F-actin [2])?
Answer: Its value is “corresponding to 30% decrease in the enzyme activity”.

Question: What about the “actomyosin HMM-ATPase activity (rate of ATP hydrolysis)” value [3] of the same substance?
Answer: Its value is 0.368±0.005 nmol Pi.

Question: For “heavy meromyosin (HMM), non-citrullinated”, which “actomyosin HMM-ATPase activity” value (F-actin [2]) is on record?
Answer: Its value is 0.32±0.01 nmol Pi.

Question: And the “increase in actomyosin HMM-ATPase rate against unmodified F-actin” value [3]?
Answer: Its value is “increased actomyosin HMM-ATPase rate by 55% compared to the unmodified F-actin”.
